These results are taken from paper PMC3306812 (Molecular Cell, 2012).

This test addresses full-length OTUB1 (human, UniProt Q96FW1 1-271). Put plainly: NMR titration.

full-length OTUB1, sequence (Q96FW1 whole entry): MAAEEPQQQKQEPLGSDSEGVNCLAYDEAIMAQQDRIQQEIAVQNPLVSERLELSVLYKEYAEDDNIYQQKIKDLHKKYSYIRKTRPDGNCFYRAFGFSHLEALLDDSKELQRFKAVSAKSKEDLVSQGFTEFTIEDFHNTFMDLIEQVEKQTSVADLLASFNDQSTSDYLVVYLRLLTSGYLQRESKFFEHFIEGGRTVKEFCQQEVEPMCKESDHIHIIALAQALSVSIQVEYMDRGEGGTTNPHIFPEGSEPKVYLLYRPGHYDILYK

B1: UBC13 (enzyme, UniProt P61088 1-152, looked up)
chain: MAGLPRRIIKETQRLLAEPVPGIKAEPDESNARYFHVVIAGPQDSPFEGGTFKLELFLPEEYPMAAPKVRFMTKIYHPNVDKLGRICLDILKDKWSPALQIRTVLLSIQALLSAPNPDDPLANDVAEQWKTNEAQAIETARAWTRLYAMNNI
For the molecule B1, the binding result was “binds”.
